Reference: patent publication US20230048046A1 (CUGENE, published 2023)

B1: huIL-15Rβ-6His (receptor, human, UniProt P14784 27-239, looked up)
chain: AVNGTSQFTCFYNSRANISCVWSQDGALQDTSCQVHAWPDRRRWNQTCELLPVSQASWACNLILGAPDSQKLTTVDIVTLRVLCREGVRWRVMAIQDFKPFENLRLMAPISLQVVHVETHRCNISWEISQASHYFERHLEFEARTLSPGHTWEEAPLLTLKQKQEWICLETLTPDTQYEFQVRVKPLQGEFTTWSPWSQPLAFRTKPAALGKD
notes: Coated on the ELISA plate; also called IL-15Rβ subunit; huIL-15R/3-6His (so in the source); not shown: 6His tag per the name
B2: P-0176, IL-15i1 (GS insertion after N95) in IL-15/IL-15Rα heterodimeric Fc fusion format (Fc fusion)
chain 1: DKTHTCPPCPAPEAAGAPSVFLFPPKPKDTLMISRTPEVTCVVVDVSHEDPEVKFNWYVDGVEVHNAKTKPREEQYNSTYRVVSVLTVLHQDWLNGKEYKCKVSNKALPAPIEKTISKAKGQPREPQVYTLPPCREEMTKNQVSLSCAVKGFYPSDIAVEWESNGQPENNYKTTPPVLDSDGSFFLVSKLTVDKSRWQQGNVFSCSVMHEALHNHYTQKSLSLSPGEPKSSDKTHTSPPSPNWVNVISDLKKIEDLIQSMHIDATLYTESDVHPSCKVTAMKCFLLELQVISLESGDASIHDTVENLIILANNSLSSNGNVTESGCKECEELEEKNGSIKEFLQSFVHIVQMFINTS
chain 2: DKTHTCPPCPAPEAAGAPSVFLFPPKPKDTLMISRTPEVTCVVVDVSHEDPEVKFNWYVDGVEVHNAKTKPREEQYNSTYRVVSVLTVLHQDWLNGKEYKCKVSNKALPAPIEKTISKAKGQPREPQVCTLPPSREEMTKNQVSLWCLVKGFYPSDIAVEWESNGQPENNYKTTPPVLDSDGSFFLYSKLTVDKSRWQQGNVFSCSVMHEALHNHYTQKSLSLSPGEPKSSDKTHTSPPSPITCPPPMSVEHADIWVKSYSLYSRERYICNSGFKRKAGTSSLTECVLNKATNVAHWTTPSLKCIRDPALVHQRPAPP
B3: P-0177, IL-15i2 (GGSGG insertion after N95) in IL-15/IL-15Rα heterodimeric Fc fusion format (Fc fusion)
chain 1: DKTHTCPPCPAPEAAGAPSVFLFPPKPKDTLMISRTPEVTCVVVDVSHEDPEVKFNWYVDGVEVHNAKTKPREEQYNSTYRVVSVLTVLHQDWLNGKEYKCKVSNKALPAPIEKTISKAKGQPREPQVYTLPPCREEMTKNQVSLSCAVKGFYPSDIAVEWESNGQPENNYKTTPPVLDSDGSFFLVSKLTVDKSRWQQGNVFSCSVMHEALHNHYTQKSLSLSPGEPKSSDKTHTSPPSPNWVNVISDLKKIEDLIQSMHIDATLYTESDVHPSCKVTAMKCFLLELQVISLESGDASIHDTVENLIILANNSLSSNGNVTESGCKECEELEEKNGGSGGIKEFLQSFVHIVQMFINTS
chain 2: B2 chain 2

Experiments:
[1] = molecular target: P-0313, C-terminal bivalent IL-15 S58D/IL-15Rα (non-covalent) Fc fusion protein (human, UniProt Q13261 31-107); test: ELISA
[2] = molecular target: B1; test: ELISA, huIL-15Rβ-6His coated, anti-human IgG Fc-HRP detection
Procedure: (§1) The binding activity was tested in ELISA assay. Briefly, Nunc Maxisorp (ThermoFisher) plates were coated overnight at 4° C. with huIL-15R/3-6His at 1 μg/well (100 μl/well) in bicarbonate buffer pH 9.4 (ThermoFisher). After washing 3 times with PBS/0.05% Tween20, plates were incubated with SuperBlock (300 μl/well) at room temperature for 2 hrs. to block nonspecific binding. After washing, IL-15 compounds each at 3-fold serial dilutions with blocking buffer were added to the plates (100 μl/well) and incubated at room temperature for 1 hr. After washing, the Fc fusions were detected by 1 hr. incubation at room temperature with a goat anti-human IgG Fc secondary antibody conjugated with horseradish peroxidase (HRP) at 1:5000 dilution in blocking buffer (ThermoFisher) (100 μl/well). After washing, TMB substrate (ThermoFisher) was added (100 ul/well). Plates were sealed and incubated 5-20 min at room temperature in dark. Reaction was stopped by adding 2N sulfuric acid (Ricca Chemical) (50 uL/well) and absorbance was read at 450-590 nm.
(§2) The IL-15 variants have amino acid deletion, insertion or point mutations introduced in the human IL-15 peptide. […]

[3] = molecular target: B1; test: ELISA EC50 against P-0153 (IL-15 wild type)
Procedure: as §1, §2

binding result [1] | EC50 [2] [nM] | Fold change [3] [fold] | Binder
binds | – | – | B1
– | 10.2 | 16 | B2
– | 38 | 59 | B3
